Source: patent US20140023585A1, “177 LUTETIUM-LABELED BOMBESIN ANALOGS FOR RADIOTHERAPY” (UNIVERSITATSSPITAL BASEL, priority 2010, published 2014)

Test: in vivo
Details: male, NMRI nu/nu, mouse, iv, total radioactivity; for tissue uptake at 1 h: 1.0 h p.a.; for tissue uptake at 4 h: 4.0 h p.a.; for tissue uptake at 24 h: 24.0 h p.a.; for tissue uptake at 48 h: 48.0 h p.a.; for tissue uptake at 72 h: 72.0 h p.a.
Procedure: Biodistribution was investigated in NMRI nude mice bearing subcutaneous PC-3 tumors in the right hind limb at different time-points. Body weight of the male mice was approx. 30 g, 3 animals were investigated per time-point. After injecting an intravenous dose into the tail vein, mice were sacrificed at indicated time points and dissected organs were analyzed by radioactive counting. An administration dose of 100 μL was applied per animal with a mean activity of 86 kBq.
At indicated time points urine and feces were quantitatively collected. At the same time points, animals were sacrificed and exsanguinations under isoflurane anesthesia and the following organs and tissues were removed for measurement of [^177Lu] using the gamma-counter: spleen, liver, gallbladder, kidneys, lung, femur, heart, brain, fat, thyroid, muscle, skin, blood, tail, stomach (without content), prostate, intestine (with content), pancreas, adrenals, and the remaining body (designated as carcass).
Whole organs and tissues or aliquots were weighted and measured in a gamma-counter for radioactivity. In order to get the amount of total radioactivity administered in each animal (=100%) 3 aliquots (100 μL each) of the injected solution were always measured in parallel. The results of the biodistribution and excretion are reported as percent of injected dose per gram of tissue (% ID/g) and percent of injected dose per organ (% ID), respectively. All data are given as mean value±standard deviation, which were calculated by using all animals per time and sample.

[1] = pancreas, 86 kBq per animal, % ID/g Pancreas
[2] = stomach (without content), 86 kBq per animal, % ID/g Stomach
[3] = stomach (without content), 86 kBq
[4] = tail, 86 kBq per animal, % ID/g Tail

## CC(C)C[C@H](NC(=O)C[C@H](O)[C@H](CC(C)C)NC(=O)[C@H](Cc1c[nH]cn1)NC(=O)CNC(=O)[C@@H](NC(=O)[C@H](C)NC(=O)[C@H](Cc1c[nH]c2ccccc12)NC(=O)[C@H](CCC(N)=O)NC(=O)[C@@H](Cc1ccccc1)NC(=O)CN1CCC(NC(=O)CN2CCN(CC(=O)O)CCN(CC(=O)O)CCN(CC(=O)O)CC2)CC1)C(C)C)C(N)=O [compound 2, [^177Lu]-DOTA-4-amino-1-carboxymethylpiperidine-D-Phe-Gln-Trp-Ala-Val-Gly-His-Sta-Leu-NH2, metal not drawn]
lung, 86 kBq per animal
  tissue uptake dose at 24 h: 0.005 %ID
  tissue uptake dose at 48 h: 0.013 %ID
lung, 86 kBq, % ID/g Lung
  tissue uptake at 1 h: 0.364 %ID/g
  tissue uptake at 4 h: 0.083 %ID/g
  tissue uptake at 24 h: 0.019 %ID/g
  tissue uptake at 48 h: 0.048 %ID/g
muscle, 86 kBq per animal
  tissue uptake dose at 1 h: 0.014 %ID
  tissue uptake dose at 4 h: 0.003 %ID
muscle, 86 kBq, % ID/g Muscle
  tissue uptake at 1 h: 0.072 %ID/g
  tissue uptake at 4 h: 0.02 %ID/g
Organs (sum), 86 kBq
  tissue uptake dose at 1 h: 20.1 %ID
  tissue uptake dose at 4 h: 9.64 %ID
  tissue uptake dose at 24 h: 3.64 %ID
  tissue uptake dose at 48 h: 2.09 %ID
  tissue uptake dose at 72 h: 1.37 %ID
[1]
  tissue uptake at 1 h: 18.7 %ID/g
  tissue uptake at 4 h: 5.17 %ID/g
  tissue uptake at 24 h: 0.579 %ID/g
  tissue uptake at 48 h: 0.288 %ID/g
  tissue uptake at 72 h: 0.206 %ID/g
pancreas, 86 kBq
  tissue uptake dose at 1 h: 8.03 %ID
  tissue uptake dose at 4 h: 1.74 %ID
  tissue uptake dose at 24 h: 0.196 %ID
  tissue uptake dose at 48 h: 0.076 %ID
  tissue uptake dose at 72 h: 0.046 %ID
prostate, 86 kBq per animal, % ID/g Prostate
  tissue uptake at 1 h: 0.289 %ID/g
prostate, 86 kBq
  tissue uptake dose at 1 h: 0.003 %ID
skin, 86 kBq per animal
  tissue uptake dose at 1 h: 1.81 %ID
  tissue uptake dose at 4 h: 0.515 %ID
  tissue uptake dose at 24 h: 0.162 %ID
  tissue uptake dose at 48 h: 0.246 %ID
  tissue uptake dose at 72 h: 0.152 %ID
skin, 86 kBq per animal, % ID/g Skin
  tissue uptake at 72 h: 0.04 %ID/g
skin, 86 kBq, % ID/g Skin
  tissue uptake at 1 h: 0.409 %ID/g
  tissue uptake at 4 h: 0.145 %ID/g
  tissue uptake at 24 h: 0.055 %ID/g
  tissue uptake at 48 h: 0.074 %ID/g
spleen, 86 kBq per animal
  tissue uptake dose at 1 h: 0.034 %ID
  tissue uptake dose at 4 h: 0.015 %ID
  tissue uptake dose at 24 h: 0.005 %ID
  tissue uptake dose at 48 h: 0.003 %ID
spleen, 86 kBq, % ID/g Spleen
  tissue uptake at 1 h: 0.284 %ID/g
  tissue uptake at 4 h: 0.152 %ID/g
  tissue uptake at 24 h: 0.06 %ID/g
  tissue uptake at 48 h: 0.056 %ID/g
[2]
  tissue uptake at 1 h: 2.56 %ID/g
  tissue uptake at 4 h: 1.36 %ID/g
  tissue uptake at 24 h: 0.081 %ID/g
  tissue uptake at 48 h: 0.042 %ID/g
  tissue uptake at 72 h: 0.02 %ID/g
[3]
  tissue uptake dose at 1 h: 0.614 %ID
  tissue uptake dose at 4 h: 0.321 %ID
  tissue uptake dose at 24 h: 0.018 %ID
  tissue uptake dose at 48 h: 0.01 %ID
  tissue uptake dose at 72 h: 0.005 %ID
tail, 86 kBq per animal
  tissue uptake dose at 1 h: 1.84 %ID
  tissue uptake dose at 4 h: 0.694 %ID
  tissue uptake dose at 24 h: 0.337 %ID
  tissue uptake dose at 48 h: 0.15 %ID
[4]
  tissue uptake at 1 h: 2.23 %ID/g
  tissue uptake at 4 h: 0.953 %ID/g
  tissue uptake at 24 h: 0.436 %ID/g
  tissue uptake at 48 h: 0.194 %ID/g
  tissue uptake at 72 h: 0.313 %ID/g
tail, 86 kBq
  tissue uptake dose at 72 h: 0.263 %ID
thyroid, 86 kBq per animal
  tissue uptake dose at 1 h: 0.006 %ID
thyroid, 86 kBq, % ID/g Thyroid
  tissue uptake at 1 h: 0.185 %ID/g
tumor, 86 kBq per animal
  tissue uptake dose at 1 h: 1.12 %ID
  tissue uptake dose at 4 h: 3.07 %ID
  tissue uptake dose at 24 h: 2.19 %ID
  tissue uptake dose at 48 h: 1.05 %ID
  tissue uptake dose at 72 h: 0.55 %ID
tumor, 86 kBq, % ID/g Tumor
  tissue uptake at 1 h: 5.6 %ID/g
  tissue uptake at 4 h: 8.1 %ID/g
  tissue uptake at 24 h: 6.06 %ID/g
  tissue uptake at 48 h: 3.58 %ID/g
  tissue uptake at 72 h: 2.49 %ID/g
urine, 86 kBq
  dose excreted at 1 h: 71.8%
  dose excreted at 4 h: 63.1%
  dose excreted at 24 h: 76.3%
  dose excreted at 48 h: 74%
  dose excreted at 72 h: 63.7%
